Source: patent publication US20180193452A1 (NEMOURS FOUNDATION, published 2018)
Where a chain is given by its changes, count along the chain named. Numbers in names are those of the source.

B1: FcεRIα extracellular domain mutant K117D (receptor)
chain: VPQKPKVSLNPPWNRIFKGENVTLTCNGNNFFEVSSTKWFHNGSLSEETNSSLNIVNAKFEDSGEYKCQHQQVNESEPVYLEVFSDWLLLQASAEVVMEGQPLFLRCHGWRNWDVYDVIYYKDGEALKYWYENHNISITNATVEDSGTYYCTGKVWQLDYESEPLNITVIKAPREKYWLQ
B2: FcεRIα extracellular domain mutant Y131A (receptor)
chain: B1 chain with D117K, Y131A
B3: FcεRIα extracellular domain mutant D159A (receptor)
chain: B1 chain with D117K, D159A
B4: FcεRIα extracellular domain mutant V155A (receptor)
chain: B1 chain with D117K, V155A
B5: FcεRIα extracellular domain mutant W87D (receptor)
chain: B1 chain with W87D, D117K
B6: FcεRIα extracellular domain mutant W113A (receptor)
chain: B1 chain with W113A, D117K

These binders were tested against T1, purified human IgE (Abcam) (human, UniProt P01854-1 1-428) (assay: not told).
T1 construct: also called free IgE; secreted IgE
T1 sequence (P01854 other isoform, or with tags, fused parts or gaps): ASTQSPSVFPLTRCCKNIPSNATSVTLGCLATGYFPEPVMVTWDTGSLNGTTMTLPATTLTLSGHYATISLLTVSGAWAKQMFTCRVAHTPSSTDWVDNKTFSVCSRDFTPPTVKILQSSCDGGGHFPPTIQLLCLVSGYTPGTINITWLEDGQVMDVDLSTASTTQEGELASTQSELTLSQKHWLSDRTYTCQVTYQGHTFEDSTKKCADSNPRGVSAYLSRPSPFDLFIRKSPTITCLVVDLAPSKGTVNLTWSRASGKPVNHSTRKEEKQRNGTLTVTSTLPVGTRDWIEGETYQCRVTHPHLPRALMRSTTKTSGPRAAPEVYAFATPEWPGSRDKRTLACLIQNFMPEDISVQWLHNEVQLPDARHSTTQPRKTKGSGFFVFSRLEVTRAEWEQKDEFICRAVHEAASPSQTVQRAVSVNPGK

Row | Binder | fold affinity reduction over wild type [fold]
1 | B1 | 27
2 | B2 | 3
3 | B3 | 2
4 | B4 | 10
5 | B5 | 7
6 | B6 | 5
